Drawing on article PMC3220268, “Phosphorylation of the Arp2 Subunit Relieves Auto-inhibitory Interactions for Arp2/3 Complex Activation” (PLoS Computational Biology, 2011), this text covers Kd for one molecule.

The target of test [1] is recombinant Arp2/3 complex with Arp2 T237A, T238A, and Y202A mutations (UniProt P61158 1-418; P61160 1-394; O15143 1-372; O15144 1-300; O15145 1-178; P59998 …, T237A | T238A | Y202A). As to the kind of experiment: pull-down; GST-NWASP VCA covalently coupled to Activated CH-sepharose 4B; beads added to Arp2/3 complex, room temperature, 30 min; beads spun at 700 x g, Coomassie-stained gels quantified and fitted. Particulars: both partners purified.

In test [2] the target is recombinant Arp2/3 complex with ARPC4 R105A and R106A mutations (UniProt P61158 1-418; P61160 1-394; O15143 1-372; O15144 1-300; O15145 1-178; P59998 …, R105A | R106A). The test is described as above. Particulars: both partners purified.

B1: GST-NWASP VCA (domain or fragment)
chain: PSDGDHQVPTTAGNKAALLDQIREGAQLKKVEQNSRPVSCSGRDALLDQIRQGIQLKSVADGQESTPPTPAPTSGIVGALMEVMQKRSKAIHSSDEDEDEDDEEDFEDDDEWED
For B1, the dissociation constant (Kd) in test [1] is 0.5 µM; in test [2], 0.06 µM.

As usually defined, the Kd is a measure of binding affinity in units of concentration.
